Measurements: US20220010008A1
Values joined by “and” are separate entries in the source; they are usually repeats but may differ in a detail not shown here. Identical values can stand only once.

Tests used:
[1] = target: recombinant human IL-5 protein (human) (UniProt P05113); test: ELISA, biotin-human IL-5 on streptavidin plate, Ab 0.0043 nM
[2] = target: recombinant human IL-5 protein (human) (UniProt P05113); test: SPR, human IL-5 immobilized on CM5 chip, chimeric antibody as analyte, 1:1 global fit
[3] = target: recombinant human IL-5 protein (human) (UniProt P05113); test: cell-based or functional assay
[4] = target: recombinant human IL-5 protein (human) (UniProt P05113); test: FACS blocking: biotin-IL-5 bound to CHOK1 IL-5Ra/CSF2RB cells, Ab 0.0107 nM
[5] = target: recombinant human IL-5 protein (human) (UniProt P05113); test: ELISA, biotin-human IL-5 on streptavidin plate, Ab 0.0009 nM
[6] = target: recombinant human IL-5 protein (human) (UniProt P05113); test: FACS blocking: biotin-IL-5 bound to CHOK1 IL-5Ra/CSF2RB cells, Ab 0.0004 nM
[7] = target: recombinant human IL-5 protein (human) (UniProt P05113); test: ELISA, biotin-human IL-5 on streptavidin plate, Ab 0.5333 nM
[8] = target: recombinant human IL-5 protein (human) (UniProt P05113); test: FACS blocking: biotin-IL-5 bound to CHOK1 IL-5Ra/CSF2RB cells, Ab 0.2667 nM
[9] = target: recombinant human IL-5 protein (human) (UniProt P05113); test: ELISA, biotin-human IL-5 on streptavidin plate, Ab 0.0213 nM
[10] = target: recombinant human IL-5 protein (human) (UniProt P05113); test: ELISA, biotin-human IL-5 on streptavidin plate, Ab 0.0002 nM
[11] = target: recombinant human IL-5 protein (human) (UniProt P05113); test: FACS blocking: biotin-IL-5 bound to CHOK1 IL-5Ra/CSF2RB cells, Ab 6.6667 nM
[12] = target: recombinant human IL-5 protein (human) (UniProt P05113); test: FACS blocking: biotin-IL-5 bound to CHOK1 IL-5Ra/CSF2RB cells, Ab 33.3333 nM
[13] = target: recombinant human IL-5 protein (human) (UniProt P05113); test: ELISA, biotin-human IL-5 on streptavidin plate, Ab 0.1067 nM
[14] = target: recombinant human IL-5 protein (human) (UniProt P05113); test: ELISA, biotin-human IL-5 on streptavidin plate, Ab 13.3333 nM
[15] = target: recombinant human IL-5 protein (human) (UniProt P05113); test: FACS blocking: biotin-IL-5 bound to CHOK1 IL-5Ra/CSF2RB cells, Ab 0.0533 nM
[16] = target: recombinant human IL-5 protein (human) (UniProt P05113); test: FACS blocking: biotin-IL-5 bound to CHOK1 IL-5Ra/CSF2RB cells, Ab 1.3333 nM
[17] = target: recombinant human IL-5 protein (human) (UniProt P05113); test: FACS blocking: biotin-IL-5 bound to CHOK1 IL-5Ra/CSF2RB cells, Ab 0.0021 nM
[18] = target: recombinant human IL-5 protein (human) (UniProt P05113); test: ELISA, biotin-human IL-5 on streptavidin plate, Ab 2.6667 nM
[19] = target: recombinant human IL-5 protein with His tag (human) (UniProt P05113); test: ELISA, biotin-human IL-5 on streptavidin; antibody 13.3333 nM
[20] = target: recombinant human IL-5 protein with His tag (human) (UniProt P05113); test: ELISA, biotin-human IL-5 on streptavidin; antibody 0.0213 nM
[21] = target: recombinant human IL-5 protein with His tag (human) (UniProt P05113); test: ELISA, biotin-human IL-5 on streptavidin; antibody 0.1067 nM
[22] = target: recombinant human IL-5 protein with His tag (human) (UniProt P05113); test: ELISA, biotin-human IL-5 on streptavidin; antibody 0.0009 nM
[23] = target: recombinant human IL-5 protein with His tag (human) (UniProt P05113); test: ELISA, biotin-human IL-5 on streptavidin; antibody 2.6667 nM
[24] = target: recombinant human IL-5 protein with His tag (human) (UniProt P05113); test: ELISA, biotin-human IL-5 on streptavidin; antibody 0.5333 nM
[25] = target: recombinant human IL-5 protein with His tag (human) (UniProt P05113); test: ELISA, biotin-human IL-5 on streptavidin; antibody 0.0002 nM
[26] = target: recombinant human IL-5 protein with His tag (human) (UniProt P05113); test: ELISA, biotin-human IL-5 on streptavidin; antibody 0.0043 nM

B1: 147D7H2 mouse-human chimeric antibody (antibody, human IgG4, V domains shown)
VH: EVQLQQSGAELVKPGASVKLSCTASGFNIKDYFIHWVKQRTEQGLEWIGRIDTEDGETKYAPKFQGKATITIDTSSNTAYLYFSSLTSEDTAMYYCARYGNYVAMDYWGQGTSVTVSS
VL: QIVLTQSPALMSASPGEKVTMTCSASSSVSYMFWYQQKPSSSPKPWIYLTSKLASGVPARFSGSGSGTSYSLTISSVEAEDAATYYCQQWNSNPYTFGGGTKLEIK
OD450 nm [1]: 0.172 OD450 nm and 0.156 OD450 nm | Kd [2]: < 0.0637 nM | koff [2]: < 1e-05 s⁻¹ | kon [2]: 157000 M⁻¹ s⁻¹ | RLU, CTLL-2 proliferation with IL-5, Ab 0.000170667 nM [3]: 50700 RLU and 51700 RLU | RLU, CTLL-2 proliferation with IL-5, Ab 0.000853333 nM [3]: 50800 RLU and 50700 RLU | RLU, CTLL-2 proliferation with IL-5, Ab 0.004266667 nM [3]: 41400 RLU and 48200 RLU | RLU, CTLL-2 proliferation with IL-5, Ab 0.02133333 nM [3]: 33800 RLU and 36400 RLU | RLU, CTLL-2 proliferation with IL-5, Ab 0.1066667 nM [3]: 12700 RLU and 13200 RLU | RLU, CTLL-2 proliferation with IL-5, Ab 0.5333334 nM [3]: 9570 RLU and 10400 RLU | RLU, CTLL-2 proliferation with IL-5, Ab 2.666667 nM [3]: 8620 RLU and 8160 RLU | RLU, CTLL-2 proliferation with IL-5, Ab 13.33333 nM [3]: 7310 RLU and 6690 RLU | RLU, CTLL-2 proliferation with IL-5, Ab 66.66666 nM [3]: 5230 RLU and 5240 RLU | RLU, CTLL-2 proliferation with IL-5, Ab 3.41333E-05 nM [3]: 56100 RLU and 52200 RLU | RLU, TF-1 proliferation with IL-5, Ab 0.00001 nM [3]: 99500 RLU and 101000 RLU | RLU, TF-1 proliferation with IL-5, Ab 0.00003 nM [3]: 100000 RLU and 95000 RLU | RLU, TF-1 proliferation with IL-5, Ab 0.00017 nM [3]: 96400 RLU and 88800 RLU | RLU, TF-1 proliferation with IL-5, Ab 0.00085 nM [3]: 89200 RLU and 82900 RLU | RLU, TF-1 proliferation with IL-5, Ab 0.00427 nM [3]: 56700 RLU and 54800 RLU | RLU, TF-1 proliferation with IL-5, Ab 0.02133 nM [3]: 45300 RLU and 43900 RLU | RLU, TF-1 proliferation with IL-5, Ab 0.10667 nM [3]: 39000 RLU and 38700 RLU | RLU, TF-1 proliferation with IL-5, Ab 0.53333 nM [3]: 36400 RLU and 40100 RLU | RLU, TF-1 proliferation with IL-5, Ab 2.66667 nM [3]: 34800 RLU and 41200 RLU | RLU, TF-1 proliferation with IL-5, Ab 13.33333 nM [3]: 35700 RLU and 39000 RLU | Fluorescence intensity [4]: 86 MFI | OD450 nm [5]: 0.102 OD450 nm and 0.104 OD450 nm | Fluorescence intensity [6]: 94 MFI | OD450 nm [7]: 2.74 OD450 nm and 2.91 OD450 nm | Fluorescence intensity [8]: 76 MFI | OD450 nm [9]: 0.406 OD450 nm and 0.385 OD450 nm | OD450 nm [10]: 0.103 OD450 nm and 0.101 OD450 nm | Fluorescence intensity [11]: 36 MFI | Fluorescence intensity [12]: 31 MFI | OD450 nm [13]: 1.25 OD450 nm and 1.3 OD450 nm | OD450 nm [14]: 3.44 OD450 nm and 3.72 OD450 nm | Fluorescence intensity [15]: 94 MFI | Fluorescence intensity [16]: 52 MFI | Fluorescence intensity [17]: 88 MFI | OD450 nm [18]: 3.22 OD450 nm and 3.35 OD450 nm

B2: 151G3B11 (murine hybridoma antibody) (antibody, V domains shown)
VH: EVHLQQSGAELVKPGASVKLSCTASGFNIKDYYMHWVKQRTEQGLEWIGRIDPEDGETKYAPKFQGQATITADTSSNTANLQLSSLTSEDTAVYYCARYGNFPDYWGPGTTLTVSS
VL: QIVLTQSPALMSASPGEKVTMTCSASSSVSYMYWYQQKPRSSPKPWIYLTSKLASGVPARFSGSGSGTSYSLTISSMEAEDAATYYCQQWNSNPYTFGGGTKLEIK
OD450 nm [19]: 4.07 and 4.04 | OD450 nm [20]: 2.02 and 2.11 | OD450 nm [21]: 3.5 and 3.4 | OD450 nm [22]: 0.185 and 0.186 | OD450 nm [23]: 4.07 and 3.8 | OD450 nm [24]: 4.03 and 3.75 | OD450 nm [25]: 0.103 and 0.094 | OD450 nm [26]: 0.625 and 0.609

B3: 147D7H2 (murine hybridoma antibody) (antibody, V domains shown)
VH: EVQLQQSGAELVKPGASVKLSCTASGFNIKDYFIHWVKQRTEQGLEWIGRIDTEDGETKYAPKFQGKATITIDTSSNTAYLYFSSLTSEDTAMYYCARYGNYVAMDYWGQGTSVTVSS
VL: QIVLTQSPALMSASPGEKVTMTCSASSSVSYMFWYQQKPSSSPKPWIYLTSKLASGVPARFSGSGSGTSYSLTISSVEAEDAATYYCQQWNSNPYTFGGGTKLEIK
OD450 nm [19]: 3.21 and 3.52 | OD450 nm [20]: 0.438 and 0.475 | OD450 nm [21]: 1.42 and 1.47 | OD450 nm [22]: 0.088 and 0.09 | OD450 nm [23]: 3.09 and 3.2 | OD450 nm [24]: 2.76 | OD450 nm [25]: 0.073 and 0.074 | OD450 nm [26]: 0.158 and 0.159
